{
  "source": "FireProtDB (doi:10.1016/s0167-4838(99)00132-6)",
  "settings": "Oryctolagus cuniculus; pH 6; Thermal; DSC; KH2PO4-KOH 10 mM; reversible: no",
  "data": [
    {"substance": "Glyceraldehyde-3-phosphate dehydrogenase wild type, P46406", "values": [
      {"measurement": "Tm", "value": 68.9, "unit": "°C"},
      {"measurement": "unfolding enthalpy (calorimetric)", "value": 693, "unit": "kcal/mol"}
    ]}
  ]
}
